Consider 1 substance from paper doi:10.1101/2021.04.24.441256.

For this test, the target named is the engineered RGA5_HMAs. Nature of the test: SPR.

Turning to “6xHis-tagged AVR-PikD (from UniProt C4B8B8 22-113) (natural protein)”, the Kd lay in the range of 0.5 to 1.6 nM.

One may read the Kd as the equilibrium constant for the complex coming apart. Low readings indicate a tighter complex, high ones a looser complex.
